# Source: publication PMC6265302, “Widespread bacterial lysine degradation proceeding via glutarate and L-2-hydroxyglutarate” (Nature Communications, 2018)
# B1: CsiD (Escherichia coli K-12) (protein)
# chain: MNALTAVQNNAVDSGQDYSGFTLTPSAQSPRLLELTFTEQTTKQFLEQVAEWPVQALEYKSFLRFRVAKILDDLCANQLQPLLLKTLLNRAEGALLINAVGVDDVKQADEMVKLATAVAHLIGRSNFDAMSGQYYARFVVKNVDNSDSYLRQPHRVMELHNDGTYVEEITDYVLMMKIDEQNMQGGNSLLLHLDDWEHLDNYFRHPLARRPMRFAAPPSKNVSKDVFHPVFDVDQQGRPVMRYIDQFVQPKDFEEGVWLSELSDAIETSKGILSVPVPVGKFLLINNLFWLHGRDRFTPHPDLRRELMRQRGYFAYASNHYQTHQ
# notes: full ORF, N-terminal 6xHis tag (pET28a), expressed in E. coli BL21(DE3); Fe(II); homotetramer
# B2: GabT (Escherichia coli K-12) (protein)
# chain: MNSNKELMQRRSQAIPRGVGQIHPIFADRAENCRVWDVEGREYLDFAGGIAVLNTGHLHPKVVAAVEAQLKKLSHTCFQVLAYEPYLELCEIMNQKVPGDFAKKTLLVTTGSEAVENAVKIARAATKRSGTIAFSGAYHGRTHYTLALTGKVNPYSAGMGLMPGHVYRALYPCPLHGISEDDAIASIHRIFKNDAAPEDIAAIVIEPVQGEGGFYASSPAFMQRLRALCDEHGIMLIADEVQSGAGRTGTLFAMEQMGVAPDLTTFAKSIAGGFPLAGVTGRAEVMDAVAPGGLGGTYAGNPIACVAALEVLKVFEQENLLQKANDLGQKLKDGLLAIAEKHPEIGDVRGLGAMIAIELFEDGDHNKPDAKLTAEIVARARDKGLILLSCGPYYNVLRILVPLTIEDAQIRQGLEIISQCFDEAKQ
# notes: full ORF, N-terminal 6xHis tag (pET28a), expressed in E. coli BL21(DE3); assayed coupled with GabD
# B3: PatA (Escherichia coli K-12) (protein)
# chain: MNRLPSSASALACSAHALNLIEKRTLDHEEMKALNREVIEYFKEHVNPGFLEYRKSVTAGGDYGAVEWQAGSLNTLVDTQGQEFIDCLGGFGIFNVGHRNPVVVSAVQNQLAKQPLHSQELLDPLRAMLAKTLAALTPGKLKYSFFCNSGTESVEAALKLAKAYQSPRGKFTFIATSGAFHGKSLGALSATAKSTFRKPFMPLLPGFRHVPFGNIEAMRTALNECKKTGDDVAAVILEPIQGEGGVILPPPGYLTAVRKLCDEFGALMILDEVQTGMGRTGKMFACEHENVQPDILCLAKALGGGVMPIGATIATEEVFSVLFDNPFLHTTTFGGNPLACAAALATINVLLEQNLPAQAEQKGDMLLDGFRQLAREYPDLVQEARGKGMLMAIEFVDNEIGYNFASEMFRQRVLVAGTLNNAKTIRIEPPLTLTIEQCELVIKAARKALAAMRVSVEEA
# notes: purified enzyme, cloning not described in main text; assayed coupled with PatD
# Tests used:
# [1] = substrate: O=C(O)CCC(=O)C(=O)O; experiment: O2 consumption, Clark electrode; type: biochemical, Escherichia coli; details: 5 mM glutarate, 4 µM Fe(NH4)2SO4, 400 µM ascorbate, MOPS pH 7.2, 30 °C
# [2] = substrate: O=C(O)CCCC(=O)O; experiment: O2 consumption, Clark electrode; type: biochemical, Escherichia coli; details: 1 mM α-ketoglutarate, 4 µM Fe(NH4)2SO4, 400 µM ascorbate, MOPS pH 7.2, 30 °C
# purified protein [3] = substrate: NCCCC(=O)O; experiment: purified protein; details: coupled with GabD (rate-limiting dehydrogenase), 5 mM α-ketoglutarate, 500 µM NADP+, pH 8.0, room temperature
# purified protein [4] = substrate: NCCCCC(=O)O; experiment: purified protein; type: biochemical, Escherichia coli; details: coupled with GabD (rate-limiting dehydrogenase), 5 mM α-ketoglutarate, 500 µM NADP+, pH 8.0, room temperature
# purified protein [5] = substrate: NCCCCN; experiment: purified protein; type: biochemical, Escherichia coli; details: coupled with PatD (rate-limiting dehydrogenase), 5 mM α-ketoglutarate, 500 µM NAD+, pH 8.0, room temperature
# purified protein [6] = substrate: NCCCCCN; experiment: purified protein; type: biochemical, Escherichia coli; details: coupled with PatD (rate-limiting dehydrogenase), 5 mM α-ketoglutarate, 500 µM NAD+, pH 8.0, room temperature
protein,measurement,setting,value
B1,Km,[1],100 ± 7 µM
same,Km,[2],650 ± 20 µM
B2,Km,purified protein [3],197 ± 27 µM
same,Km,purified protein [4],439 ± 29 µM
B3,Km,purified protein [5],1430 ± 70 µM
same,Km,purified protein [6],370 ± 50 µM
